Numbering of substitutions follows the chain as printed.
B1: C947 (antibody, V domains shown)
VH: QVQLQESGPGLVRPSGTLSLTCAVTGGSISSSDCWSWVRQPPGKGLEWIGEICHGRTSNYNPSLKSPVSISVDKSKNQFSLILSSVTAADKAVYYCARSSRFLPPLPDAFDLWGQGTMVTVSS
VL: QSVLTQPPSVSGAPGQRVTISCTGSSSNIGAGYDVHWYKQLPGTAPKLLIYGNTNRPSGVPGRFSGSKSGTSASLAITGLQAEDEADYFCQSYDTRLSVVFGGGTKLT
B2: C948 (antibody, V domains shown)
VH: EVQLVESGGGLVQPGGSLRLSCAASGFTFSRYDMHWVRQATGKGLEWVSIIGTAGDTYYPGSVKGRFTISRDNAKNSLFLQMNSLRAGDTAVYYCARANYDSSGYHNWFDPWGQGTLVTVSS
VL: DIQMTQSPSSLSASIGDRVTITCRASQNINSYLNWYQQKPGKAPKLLIYAASSLQSGVPSRFSGSGSGTDFTLTINSLQPEDFATYYCQQSYSMPSWTFGQGTKVEI
B3: C949 (antibody, V domains shown)
VH: QVQLQESGPGLVKPLQTLSLTCTVSGGSISNGDYYWSWIRQSPGKGLEWIGNIFYSGATYFNPSLKSRVTLSVDTSKNQFSLKLSSVTAADTAVYYCARVVRVLPAASVDCWGQGTLVTVSS
VL: QSALTQPRSVSGSPGQSVPISCTGTSSDVGGYDYVSWYQQHPGKAPKLIIYDVSERPSGVPDRFSGSKSGNTASLTISGLQAEDEATYYCCSYAGTSVMFGGGTKLTVL
B4: C951 (antibody, V domains shown)
VH: QVQLQESGPRLVKPSGTLSLTCAVSGGSISTTNWWSWVRQPPGKGLEWIGEIHHSGNTNYNPSLKSRVTISVDRSKNQFSLKLSSVTAADTAVYFCARDGGRPGDPFDIWGQGTMVTVSS
VL: QSALTQPASVSGSPGQSITISCTGTSSDVGGYNYVSWYQQHPGKAPNLMIYDVSDRPSGVSNRFSGSKSGNTASLTISGLQAEDEADYYCNSFTSNSTRVFGTGTKVTV
B5: C1025 (antibody, V domains shown)
VH: EVQLVESGGGLVQPGRSLRLSCAASGFTFDDYAMHWVRQVPGKGLEWVSGVSWNGDSVGYADSMEGRFTISRDNAKNSLYLQMNSLRTEDTALYYCAKGVDYSSSSNFDFWGQGTLVTVSS
VL: DIQMTQSPSSVSASVGDRVTITCRASQGISSWLAWYQQKPGKAPKLLISLASSLQSGVPSRFSGSGSETDFTLIISSLQPEDFATYYCQQSSSFPLTFGGGTKVEIK
B6: C1026 (antibody, V domains shown)
VH: QVQLVESGGGVVQPGKSLRLSCAASGFIFSSYSMHWVRQAPGKGLEWVAVVSNDGSGKFYADSVRGRFTIFRDNSKNTLYLQVSSLRAEDTAVYYCARDALTSISVLFDCWGQGTLVTVSS
VL: DIQMTQSPSSLSASLGDRVTITCRASQSISNYLNWYQQKPGKAPKLLIYGASSLQSGVPSRFSGSGSGTDFTLTISNLQPEDFATYFCQQSYSTPSVTFGGGTKVEIK
B7: C1027 (antibody, V domains shown)
VH: EVQLVESGGGLVQPGGSLRLSCAASGFIVTTNYMSWVRQAPGKGLEWVSLIYPGGSTFYADSVEGRFTISRDNSKNTLYLQVNSLRVEDTAVYYCARDTFGRGDDHWGQGTLVTVSS
VL: DIQMTQSPSSLSASVGDRVTITCQASQDINIYLNWYQQRPGKAPKLLIYDASNLQTGVPSRFSGSGSGTDFTITISSLQPEDIATYYCQQYDNLPRSFGQGTKLEI
B8: C1028 (antibody, V domains shown)
VH: QVQLVESGGGVVQPGRSLRLSCADSGFTFSSSGMHWVRQAPGKGLEWVGVISYDGGNKYYADSVKGRFTISRDNSKNTLYLQMNSLRAEDTAVYYCAKDTPGGDDIMTGWGLYGMDVWGQGTTVTVSS
VL: DIQMTQSPSSLSASVEDRVTITCRASQSISSYLNWYQQKPGKAPKLLIYAAISLQSGVPSRFSGSGSGTEFTLTISSLQPEDFATYYCQQSYTTPWAFGQGTKVEIK
B9: C1029 (antibody, V domains shown)
VH: QVQLVESGGGVVQPGRSLRLSCAASGFTFSSFGMHWVRQAPGKGLEWVAVISYDGSYKDYGDSVKGRFTISRDNSKNTLYLQMNSLRAEDTAVYYCARDSNVDTVMVTWFDYWGRGTLVTVSS
VL: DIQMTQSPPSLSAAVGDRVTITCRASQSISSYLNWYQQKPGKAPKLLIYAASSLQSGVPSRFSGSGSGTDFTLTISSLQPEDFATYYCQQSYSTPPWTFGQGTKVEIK
B10: C1030 (antibody, V domains shown)
VH: EVQLVESGGGLVQPGGSLRLSCEASGVIVSSNYMNWVRQAPGKGPEWVSVLYAGGSTFYADSVKGRFTISRDDSKNTLFLQMNNLRAEDTAVYFCARDLIAFGMDVWGQGTTVTVSS
VL: DIQLTQSPSFLSASVGDRVTITCRASQGINSDLAWYQQKPGKAPKLLIYGASTLQSGVPSRFSGSGSGTEFSLTVSSLQPEDFATYYCQQLNSYRRFGGGTKVEIK
B11: C1031 (antibody, V domains shown)
VH: QLQLQESGPGLVKPSETLSLTCTVSGGSINTSTYYWGWIRQPPGKGLEWIGNIYYSGITYYNPSLKSRVTISVDTSKNQFSLKLRSVTAADTAVYYCARQHRFGSGSSELLWGQGTLVTVSS
VL: QSALTQPPSASGSPGQSVTISCTGTSSDVGSYNYVSWYQQHPGKAPKLMIYEVTKRPSGVPDRFSGSKSGNTASLTVSGLQADDEADYYCSSYAGSSNLVFGGGTKLTV
B12: C1032 (antibody, V domains shown)
VH: EVQLVESGGSLVKPGGSLRLSCVASGLTFNHAWMSWVRQAPGKGLEWVGRIKSKIDGGTTDYAAPVKGRFTISRDDSKSTQYLQMNSLKTEDTAVYYCTTDCFWRLGGTTCYEHDAFDVWGQGTMVTVS
VL: DIQMTQSPSSLSASVGDRVTITCRASQAIATFLNWYQQKPGKAPKLLIYAASSLQSGVPSRFSGSGSGTDFTLTISSLQPEDFATYYCQQSYNSLHFGGGTKVEIK
B13: C1033 (antibody, V domains shown)
VH: QVQLVQSGAEVKKPGSSVKVSCKASGGTFSRNVISWVRQAPGQGLEWMGGIIPMFGTANYAQKFQGRVTISADESTSTAYMELSSLRSEDTAVYYCAREDFILESAPIRENSYYYYGMDVWGQGTTVTVSS
VL: EIVLTQSPGTLSLSPGERATLSCRASQSVSSNYLAWYQQKPGQAPRLLIYDASSRATGIPDRFSGSGSGTDFTLTIRRLEPEDFAVYYCQQYGGSPRTFGQGTKVEIK
B14: C1034 (antibody, V domains shown)
VH: QLQLQESGPGLVKPSETLSLTCTVSGGSVSSNNHYWGWIRQPPGKGLEWIGSISSSGSTHHNPSLRSRVTISVDTSKNHFSLKLNSVTATDTAVYYCARVDSSGWYTGDVFDVWGQGTMVTVSS
VL: DIQMTQSPSSLSASVGDRVTITCRASQTINNYLNWYQQKPGKPPKLLIYAAFSLHSGVPSRFSGSRSGTDFTLTISSLQPEDFATYYCQHSYSTMCSFGQGTKLEIK
B15: C1035 (antibody, V domains shown)
VH: EVQLVESGGGLIQPGGSLRLSCAASGLTVSRNYMNWVRQAPGKGLEWVSVMYSGGSTFYADSVKGRFTISRDNSKNTLYLQMNSLRAEDTAVYYCARESYGMDVWGQGTTVTVSS
VL: B13 VL with V29F, N32T, D51G, R77S, G93V, G94T, R97W
B16: C1036 (antibody, V domains shown)
VH: B15 VH with T28I, A40V, S53A, N73D, A87P
VL: B13 VL with V29I, N32T, D51G, R77S, G93V, G94T, R97W
B17: C1038 (antibody, V domains shown)
VH: QVQLVQSGAEVKKPGASVKVSCKASGYTFTSYYMHWVRQAPGQGLEWMGIINPSGGSTRYAQKFQGRVTMTRDTSTSTVYMELSSLRSEDTAVYYCAREGVGGTSYFDYWGQGTLVTVSS
VL: SYELTQPPSVSVAPGKTARITCGGNNIGSKSVHWYQQKPGQAPVLVVYDDSDRPSGIPERFSGSNSGNTATLTISRVEAGDEADYYCQVWDSSSDPYVFGTGTKVTVL
B18: C1039 (antibody, V domains shown)
VH: QVQLVQSGAEVKKPGASVKVSCKASGYTFTSHYMHWVRQAPGQGLEWMGIINPRTRYAQMFQGRVSMNRDTSTSTVYMELSSLTSEDTAVYYCAREGLGATAYFDYWGQGTLVTVSS
VL: B17 VL with R19G, N25S, N26D, T106S
B19: C1040 (antibody, V domains shown)
VH: QVQLVESGGGVVQPGRSLRLSCAASGFSFINYNMHWVRQAPGKGLEWVAVIWYDGSNKYYADSVKGRFTISRDNSKNTLYLQMNSLRVEDTAVYYCARDPAITEAEIDYWGQGTLVTVSS
VL: DVVMTQSPLSLPVTLGQAASISCRSSQSLVHSDGNTYLNWFQQRPGQSPRRLIYRVSNRDSGVPDRFSASGSGTDFTLKISRVEAEDVGVYYCMQGTHWPWTFGQGTKVEIK
B20: C1043 (antibody, V domains shown)
VH: EVQLVESGGGLVQPGRSLRLSCAASGFIFDNYAMHWVRQAPGKGLEWVSGISWNSDSIGYADSVKGRFTISRDNAKNSLYLQMSSLRAEDTALYYCAKDLLGNYYYYTLDVWGQGTTVTVSS
VL: QSALTQPASVSGSPGQSITISCTGTSSDIGGNNYVSWYQQHPGKAPRLMIFDVSYRPSGVSNRFSGSKSGNTASLTISGLQAEDEADYYCISYTTSSTLGVFGGGTKLTVL
B21: C1044 (antibody, V domains shown)
VH: QVQLQESGPGLVKPSQTLSLTCTVSGGSISSGNYYLTWIRQPAGKGLEWIGHIYTSGSTNYNPSLKSRVTISVDTSMNQFSLKLSSVTAADTAVYYCARDIPPTWYFDLWGRGTLVTVSS
VL: SYELTQPPSVSVAPGKTARITCGGNNIGSKNVHWYQQKPGQAPVLVVYDDSDRPSGIPERFSGSNSGNTATLTISRVEAGDEAGYYCQVWDSTSDHLFWVFGGGTKLTVL
B22: C1045 (antibody, V domains shown)
VH: B21 VH with G27D, L36W, T37S, T59P, N62K, V73L, M77K, S85T, V94M, P103S
VL: B21 VL with T21P, N25T, N26D, V46A, N68S, G84D, T93S, S94G, H96R, F98S
B23: C1046 (antibody, V domains shown)
VH: EVQLVQSGAEVKKPGESLKISCKGSGYSFTSYWIGWVRQMPGKGLEWMGIIYPGDSDTRYSPSFQGQVTISADKSISTAYLQWSSLKASDTAMYYCARMVTSGTYYYDNSGYSSSGPFDYWGQGTLVTVSS
VL: DIQLTQSPSSLSASVGDRVTITCRASQGISSALAWYQQKPGKAPKLLIYDASSLESGVPSRFSGSGSGTDFTLTISSLQPEDFATYYCQQFNNFGPGTKVDIK
B24: C1047 (antibody, V domains shown)
VH: EVQLVQSGAEVKKPGESLKISCKGSGYSFISYWIVWVRQMPGKGLEWIGIIYPGDSDTIYSPSFQGQVTLSADKSISTAYLQWSSLKASDTAIYYCAKMVTSGTSYYETRGYASSGPFDNWGQGTLVTVSS
VL: DIQLTQSPSSLSASVGDRVTITCRASQGISSALAWYQQKPGKAPKLLIYDASSLESGVPSRFSGSGSGTDFTLTISSLQPEDFATYYCQQSDNFGPGTKVDI

Each binder was assayed against T1, SARS-COV-2 RBD (SARS-COV-2, UniProt P0DTC2 319-539) (assay: ELISA, RBD coated on plate).
T1 construct: also called WT RBD

| Binder | EC50 [ng/mL] |
| --- | --- |
| B1 | 2.08 |
| B2 | 3.26 |
| B3 | 2.33 |
| B4 | 0.81 |
| B5 | 2.51 |
| B6 | 2.5 |
| B7 | 2.42 |
| B8 | 3.58 |
| B9 | 2.86 |
| B10 | 2.78 |
| B11 | 7.23 |
| B12 | 2.89 |
| B13 | 3.63 |
| B14 | 2.77 |
| B15 | 2.05 |
| B16 | 1.02 |
| B17 | 2.46 |
| B18 | 2.61 |
| B19 | 2.08 |
| B20 | 2.77 |
| B21 | 3.22 |
| B22 | 2.57 |
| B23 | 3.8 |
| B24 | 2.46 |

Reference: patent US20240218057A1 (ROCKEFELLER UNIVERSITY, published 2024)
